According to PMC7797039, “G-Quadruplex loops regulate PARP-1 enzymatic activation”:

Key:
PARP-1 [1] = molecular target: T1, PARP-1 (Homo sapiens, UniProt P09874 1-1014); assay: fluorescence anisotropy; 140 mM KCl, 8 mM MgCl2; ~14-fold tighter than c-KIT, similar to 18-bp dsDNA; 25 mM HEPES pH 8.0, 140 mM KCl, 8 mM MgCl2, 50 ug/ml BSA, 0.02 mM TCEP, 4% glycerol, 11.4 mM bME, 5 nM labeled DNA, 30 min room temperature, read at 25 C; conditions: protein: recombinant; tags: His-tag (pET28a); parallel G4
T1 sequence (P09874 whole entry): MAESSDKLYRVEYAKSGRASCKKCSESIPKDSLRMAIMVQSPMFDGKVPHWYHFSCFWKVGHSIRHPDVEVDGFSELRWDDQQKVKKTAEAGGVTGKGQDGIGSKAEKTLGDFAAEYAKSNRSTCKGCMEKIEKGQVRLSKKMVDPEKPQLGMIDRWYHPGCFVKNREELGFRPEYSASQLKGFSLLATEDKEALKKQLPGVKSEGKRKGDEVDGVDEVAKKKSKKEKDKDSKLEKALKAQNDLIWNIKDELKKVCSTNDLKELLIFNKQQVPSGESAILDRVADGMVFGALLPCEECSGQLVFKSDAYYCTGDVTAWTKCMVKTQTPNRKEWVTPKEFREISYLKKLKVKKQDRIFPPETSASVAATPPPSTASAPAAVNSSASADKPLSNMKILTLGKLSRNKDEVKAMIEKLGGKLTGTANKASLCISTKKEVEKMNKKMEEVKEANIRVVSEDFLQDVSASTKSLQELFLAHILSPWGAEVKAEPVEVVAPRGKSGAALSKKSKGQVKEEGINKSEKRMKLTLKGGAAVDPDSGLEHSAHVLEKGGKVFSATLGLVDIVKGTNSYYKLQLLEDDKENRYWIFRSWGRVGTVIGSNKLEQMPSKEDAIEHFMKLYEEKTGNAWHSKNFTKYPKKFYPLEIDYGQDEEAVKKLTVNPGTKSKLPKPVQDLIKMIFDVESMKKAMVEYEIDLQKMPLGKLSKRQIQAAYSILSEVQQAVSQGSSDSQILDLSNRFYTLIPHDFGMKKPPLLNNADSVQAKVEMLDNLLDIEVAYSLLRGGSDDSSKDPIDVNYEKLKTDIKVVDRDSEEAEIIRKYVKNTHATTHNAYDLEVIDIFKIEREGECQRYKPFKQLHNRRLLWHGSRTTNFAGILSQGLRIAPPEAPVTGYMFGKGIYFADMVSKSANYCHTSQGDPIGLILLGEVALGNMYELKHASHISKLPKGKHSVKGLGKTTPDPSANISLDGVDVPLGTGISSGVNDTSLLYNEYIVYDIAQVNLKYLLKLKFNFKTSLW

PARP-1 [2] = molecular target: T1, PARP-1; assay: fluorescence anisotropy; 140 mM KCl, 8 mM MgCl2; 25 mM HEPES pH 8.0, 140 mM KCl, 8 mM MgCl2, 50 ug/ml BSA, 0.02 mM TCEP, 4% glycerol, 11.4 mM bME, 5 nM labeled DNA, 30 min room temperature, read at 25 C; conditions: protein: recombinant, tags: His-tag (pET28a)
PARP-1 [3] = molecular target: T1, PARP-1; assay: fluorescence anisotropy; 140 mM KCl, 8 mM MgCl2; tighter than c-KIT, Kd in figure only; 25 mM HEPES pH 8.0, 140 mM KCl, 8 mM MgCl2, 50 ug/ml BSA, 0.02 mM TCEP, 4% glycerol, 11.4 mM bME, 5 nM labeled DNA, 30 min room temperature, read at 25 C; conditions: protein: recombinant; tags: His-tag (pET28a); parallel G4

B1: c-KIT 5':L2 (structured_DNA)
DNA: GGGCGGGCGGGAGGGGAGG
Question: For B1, which Kd (PARP-1 [1]) is on record?
Answer: Its Kd is about 30 nM.

B2: 18-bp dsDNA (dsDNA)
DNA 1: GGGTTGCGGCCGCTTGGG
DNA 2: CCCAAGCGGCCGCAACCC
Question: For B2, which Kd (PARP-1 [2]; blunt) is on record?
Answer: Its Kd is 30 ± 10 nM.

B3: c-KIT 5' (structured_DNA)
DNA: CGGGCGGGCGCGAGGGAGGGGAGG
Question: With B3 as the binder, how does the Kd (PARP-1 [2]; parallel G4) read?
Answer: Its Kd is 230 ± 9 nM.

B4: c-KIT G4DNA (structured_DNA)
DNA: CCCGGGCGGGCGCGAGGGAGGGGAGG
Question: With B4 as the binder, how does the Kd (PARP-1 [2]; parallel G4, stem-loop also possible) read?
Answer: Its Kd is 430 ± 60 nM.

B5: c-KIT L2 (structured_DNA)
DNA: CCCGGGCGGGCGGGAGGGGAGG
Question: Does B5 bind (PARP-1 [3])?
Answer: Result: binds

B6: c-MYC G4DNA (Pu18 T14T23) (structured_DNA)
DNA: TGGGTGGGTAGGGTGGGT
Question: Which Kd (PARP-1 [2]; parallel G4) does the source give for B6 here?
Answer: Its Kd is 400 ± 50 nM.
